# Results as given in article PMC2734569, “Functional mapping of the fission yeast DNA polymerase δ B-subunit Cdc1 by site-directed and random pentapeptide insertion mutagenesis” (BMC Molecular Biology, 2009).
# Experiments:
# [1] = molecular target: Cdc1-J17 (Schizosaccharomyces pombe) (UniProt P87324); assay: two-hybrid; LexA-Cdc1 bait (pBTM116 or pBTM116BN) with Gal4 activation domain-Cdc27 prey (pGAD2F-Cdc27) in S. cerevisiae CTY10-5d; ONPG liquid culture beta-galactosidase assay, mean of triplicates, as percent of wild-type Cdc1
# Cdc1-J8 = molecular target: T1, Cdc1-J8 (Schizosaccharomyces pombe, UniProt P87324 1-462, Lys-GlyValProLeuLys-Pro); assay: as above; details: partners not purified
# T1 construct: Cdc1, S. pombe, with a pentapeptide inserted after residue 83; also called J19; source: yeast two-hybrid fusion, in S. cerevisiae CTY10-5d
# T1 sequence (looked up): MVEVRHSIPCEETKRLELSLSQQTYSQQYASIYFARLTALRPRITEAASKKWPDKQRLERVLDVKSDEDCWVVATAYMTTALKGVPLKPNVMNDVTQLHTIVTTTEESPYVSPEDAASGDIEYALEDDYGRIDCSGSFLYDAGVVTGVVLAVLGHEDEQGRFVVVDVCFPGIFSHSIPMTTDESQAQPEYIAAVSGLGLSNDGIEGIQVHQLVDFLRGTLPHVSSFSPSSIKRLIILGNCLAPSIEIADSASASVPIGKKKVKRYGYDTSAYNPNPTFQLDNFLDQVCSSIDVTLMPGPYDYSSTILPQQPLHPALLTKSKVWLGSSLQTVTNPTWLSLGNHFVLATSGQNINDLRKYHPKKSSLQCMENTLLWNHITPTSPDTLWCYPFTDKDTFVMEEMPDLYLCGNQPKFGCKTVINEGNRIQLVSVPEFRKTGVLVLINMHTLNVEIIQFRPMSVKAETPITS
# Cdc1-J16 = molecular target: T2, Cdc1-J16 (Schizosaccharomyces pombe, UniProt P87324 1-462, Val-GlyGlyThrProVal-Asp); assay: as above; details: partners not purified
# T2 construct: Cdc1, S. pombe, with a pentapeptide inserted after residue 160; source: yeast two-hybrid fusion, in S. cerevisiae CTY10-5d
# T2 sequence (looked up): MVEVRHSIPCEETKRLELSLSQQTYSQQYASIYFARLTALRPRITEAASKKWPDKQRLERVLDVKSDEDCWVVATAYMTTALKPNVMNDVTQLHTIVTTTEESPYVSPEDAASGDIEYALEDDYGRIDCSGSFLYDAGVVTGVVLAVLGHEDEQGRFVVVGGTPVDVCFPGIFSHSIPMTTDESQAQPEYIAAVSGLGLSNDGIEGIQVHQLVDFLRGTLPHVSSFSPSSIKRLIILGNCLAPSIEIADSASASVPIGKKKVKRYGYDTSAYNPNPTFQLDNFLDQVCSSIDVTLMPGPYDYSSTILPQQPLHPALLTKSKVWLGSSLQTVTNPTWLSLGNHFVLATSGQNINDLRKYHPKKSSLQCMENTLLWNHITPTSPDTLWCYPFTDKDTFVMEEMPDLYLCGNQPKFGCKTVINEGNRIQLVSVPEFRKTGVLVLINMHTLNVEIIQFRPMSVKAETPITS
# Cdc1-E5 = molecular target: T3, Cdc1-E5 (Schizosaccharomyces pombe, UniProt P87324 1-462, Val-MetGlyTyrProVal-Met); assay: two-hybrid; LexA-Cdc1 bait (pBTM116 or pBTM116BN) with Gal4-Pol3 prey and co-expressed c-myc-tagged Cdc27 (pAA-Cdc27) in S. cerevisiae CTY10-5d; ONPG liquid culture beta-galactosidase assay, mean of triplicates, as percent of wild-type Cdc1; details: partners not purified
# T3 construct: Cdc1, S. pombe, with a pentapeptide inserted after residue 86; source: yeast two-hybrid fusion, in S. cerevisiae CTY10-5d
# T3 sequence (looked up): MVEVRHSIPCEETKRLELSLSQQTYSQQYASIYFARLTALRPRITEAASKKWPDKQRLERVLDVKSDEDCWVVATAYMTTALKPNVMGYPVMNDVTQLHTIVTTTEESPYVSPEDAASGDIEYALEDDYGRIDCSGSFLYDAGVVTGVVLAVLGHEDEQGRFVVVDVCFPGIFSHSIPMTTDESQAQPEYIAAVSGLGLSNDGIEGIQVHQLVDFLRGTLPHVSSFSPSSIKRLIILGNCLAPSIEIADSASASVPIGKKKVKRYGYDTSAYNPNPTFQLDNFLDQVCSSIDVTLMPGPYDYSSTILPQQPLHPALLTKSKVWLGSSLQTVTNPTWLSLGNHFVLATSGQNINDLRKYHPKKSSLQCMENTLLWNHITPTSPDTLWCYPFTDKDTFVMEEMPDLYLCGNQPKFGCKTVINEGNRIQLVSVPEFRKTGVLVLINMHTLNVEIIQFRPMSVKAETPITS
# Cdc1-A9 = molecular target: T4, Cdc1-A9 (Schizosaccharomyces pombe, UniProt P87324 1-462, Pro292Ala | Gly293Ala); assay: as above; details: partners not purified
# T4 construct: Cdc1, S. pombe, double point mutant (A1 and A2 combined); source: yeast two-hybrid fusion, in S. cerevisiae CTY10-5d
# T4 sequence (looked up): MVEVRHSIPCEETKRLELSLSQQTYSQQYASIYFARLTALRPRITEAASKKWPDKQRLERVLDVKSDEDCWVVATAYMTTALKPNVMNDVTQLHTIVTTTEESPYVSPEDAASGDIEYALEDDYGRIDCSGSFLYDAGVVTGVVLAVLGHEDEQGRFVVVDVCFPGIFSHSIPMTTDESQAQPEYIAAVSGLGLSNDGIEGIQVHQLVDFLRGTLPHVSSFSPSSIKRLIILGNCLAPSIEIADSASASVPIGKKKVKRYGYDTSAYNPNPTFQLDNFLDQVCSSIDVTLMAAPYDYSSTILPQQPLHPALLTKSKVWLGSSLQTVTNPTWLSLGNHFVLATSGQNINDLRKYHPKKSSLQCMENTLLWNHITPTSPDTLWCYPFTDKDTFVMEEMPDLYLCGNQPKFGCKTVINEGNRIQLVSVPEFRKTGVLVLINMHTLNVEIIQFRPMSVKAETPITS
Binder,"two-hybrid beta-galactosidase activity, % of wild-type Cdc1 [1] [%]","two-hybrid beta-galactosidase activity, % of wild-type Cdc1 (Cdc1-J8) [%]","two-hybrid beta-galactosidase activity, % of wild-type Cdc1 (Cdc1-J16) [%]","two-hybrid beta-galactosidase activity, % of wild-type Cdc1 (Cdc1-E5) [%]","two-hybrid beta-galactosidase activity, % of wild-type Cdc1 (Cdc1-A9) [%]"
"Cdc27 (fission yeast DNA polymerase delta C-subunit) (natural protein, Schizosaccharomyces pombe, UniProt P30261 1-372, looked up, DNA polymerase delta C-subunit Cdc27, S. pombe; prey plasmid pGAD2F-Cdc27; also called pGAD2F-Cdc27; source: yeast two-hybrid fusion, in S. cerevisiae CTY10-5d) MEEWRNFLDIKVINESSLVTVDNLSLQLDISSEKAQEYLNMFYQGNDFLYPIYLIHGQPIDDEINLEIDEESQPISNFPVLQYILCDKSSLQEKQSRLKSGYKTVIFALSSAPLSDFDELLPAVYEIREKDVLYKKEDADKYGFIFNENSVPRVLKKAPSTHSPQLSVPSKTSTIDKTDTRSTEKTKGKDIFSNARNQKGNSSRKNKKAPLENHKEKEPLLPKEEKLSEQAKRERDDLKNIMQLEDESVSTTSVHDSEDDNLDSNNFQLEIGTEAKSAAPDEPQEIIKSVSGGKRRGKRKVKKYATTKDEEGFLVTKEEEVWESFSEDENISTGTSNVVRNKPTTVNIATKKKNTAQSKPQQKSIMSFFGKK",< 1,128,< 1,–,–
"Pol3 (fission yeast DNA polymerase delta catalytic subunit) (natural protein, Schizosaccharomyces pombe, UniProt P30316 1-1086, looked up, DNA polymerase delta catalytic subunit Pol3, S. pombe; prey plasmid named pACT-Pol3 in the results and pGAD2F-Pol3 in the methods; also called Gal4-Pol3; pACT-Pol3; source: yeast two-hybrid fusion, in S. cerevisiae CTY10-5d) MTDRSSNEGVVLNKENYPFPRRNGSIHGEITDVKRRRLSERNGYGDKKGSSSKEKTSSFEDELAEYASQLDQDEIKSSKDQQWQRPALPAINPEKDDIYFQQIDSEEFTEGSVPSIRLFGVTDNGNSILVHVVGFLPYFYVKAPVGFRPEMLERFTQDLDATCNGGVIDHCIIEMKENLYGFQGNEKSPFIKIFTTNPRILSRARNVFERGEFNFEELFPVGVGVTTFESNTQYLLRFMIDCDVVGMNWIHLPASKYQFRYQNRVSNCQIEAWINYKDLISLPAEGQWSKMAPLRIMSFDIECAGRKGVFPDPSIDPVIQIASIVTQYGDSTPFVRNVFCVDTCSQIVGTQVYEFQNQAEMLSSWSKFVRDVDPDVLIGYNICNFDIPYLLDRAKSLRIHNFPLLGRIHNFFSVAKETTFSSKAYGTRESKTTSIPGRLQLDMLQVMQRDFKLRSYSLNAVCSQFLGEQKEDVHYSIITDLQNGTADSRRRLAIYCLKDAYLPQRLMDKLMCFVNYTEMARVTGVPFNFLLARGQQIKVISQLFRKALQHDLVVPNIRVNGTDEQYEGATVIEPIKGYYDTPIATLDFSSLYPSIMQAHNLCYTTLLDSNTAELLKLKQDVDYSVTPNGDYFVKPHVRKGLLPIILADLLNARKKAKADLKKETDPFKKAVLDGRQLALKVSANSVYGFTGATNGRLPCLAISSSVTSYGRQMIEKTKDVVEKRYRIENGYSHDAVVIYGDTDSVMVKFGVKTLPEAMKLGEEAANYVSDQFPNPIKLEFEKVYFPYLLISKKRYAGLFWTRTDTYDKMDSKGIETVRRDNCPLVSYVIDTALRKMLIDQDVEGAQLFTKKVISDLLQNKIDMSQLVITKALSKTDYAAKMAHVELAERMRKRDAGSAPAIGDRVAYVIIKGAQGDQFYMRSEDPIYVLENNIPIDAKYYLENQLSKPLLRIFEPILGEKASSLLHGDHTRTISMAAPSVGGIMKFAVKVETCLGCKAPIKKGKTALCENCLNRSAELYQRQVAQVNDLEVRFARLWTQCQRCQGSMHQDVICTSRDCPIFYMRIAEHKKLQQSVDLLKRFDEMSW",–,–,–,48,< 1
